Measurements from patent publication US20040137000A1 (UNITED BIOMEDICAL, published 2004).
Positions count from the first letter of the chain named.

B1: chimeric B4 antibody (antibody, human IgG1, V domains shown)
VH: QVQLQQSGPELVKPGASVRMSCKASGYTFTDYVIHWVKQRTGQGLEWIGEIYPGSGSAYSNAKFKDKATLTADKSSNTAYMQLSSLTSEDSAVYFCARRGNGTGFAYWGQGTLVTVSA
VL: DIVLTQSPASLAVSLGQRATISCKAGQSVDYDGDSYMNWYQQKPGQPPKLLIYVASNLESGIPARFSGSGSGTDFTLNIHPVEEEDAATYYCQQSYKDPLTFGAGTKLELK
notes: Fully murine B4 variable regions joined to human IgG1 and human kappa constant regions; also called B4 chimeric antibody; chimeric antibody
B2: deimmunized B4 antibody DIVHv.3/VKv.2 produced by NS0 cells (antibody, human IgG1, V domains shown)
VH: QVQLVQSGAEVKKPGASVKVSCKASGYTFTDYVIHWVKQATGQGLEWIGEIYPGSGSAYSNAKFKDRVTITADKSTNTAYMELRSLRSDDTAVYFCARRGNGTGFAYWGQGTLVTVSS
VL: B1 VL with L15P, S22T, A64S, N78T, H80N, E85N, A87T, A104Q, L108V, L110I
notes: Human IgG1 and human kappa constant regions; NS0 cells; also called DIVHv.3/V v.2; DIVH3/VK2
B3: murine monoclonal antibody B4 (antibody, V domains shown)
VH: B1 VH
VL: B1 VL
B4: deimmunized B4 antibody DIVHv.2/VKv.2 produced by NS0 cells (antibody, human IgG1, V domains shown)
VH: B2 VH with K38R
VL: B1 VL with L15P, S22T, A64S, N78T, H80N, E85N, A87T, A104Q, L108V, L110I
notes: Human IgG1 and human kappa constant regions; NS0 cells; also called DIVHv.2/V v.2; DIVH2/VK2
B5: deimmunized B4 antibody DIVHv.4/VKv.2 produced by NS0 cells (antibody, human IgG1, V domains shown)
VH: B2 VH with K38R, A62S
VL: B1 VL with L15P, S22T, A64S, N78T, H80N, E85N, A87T, A104Q, L108V, L110I
notes: Human IgG1 and human kappa constant regions; NS0 cells; also called DIVHv.4/V v.2
B6: deimmunized B4 antibody DIVHv.1/VKv.2 produced by NS0 cells (antibody, human IgG1, V domains shown)
VH: B2 VH with A9P, V11L, I70M, T76S, R84S, R87T
VL: B1 VL with L15P, S22T, A64S, N78T, H80N, E85N, A87T, A104Q, L108V, L110I
B7: deimmunized B4 antibody DIVHv.1/VKv.3 produced by NS0 cells (antibody, human IgG1, V domains shown)
VH: B2 VH with A9P, V11L, I70M, T76S, R84S, R87T
VL: DIVLTQSPASLAVSPGQRATITCKAGQSVDYDGDSYMNWYQQKPGQPPKLLIYVASNLESGIPSRFSGSGSGTDFTLTINPVEENDTATYYCQQSYKDPLAFGPGTKVEIK
B8: deimmunized B4 antibody DIVHv.3/VKv.3 produced by NS0 cells (antibody, human IgG1, V domains shown)
VH: B2 VH
VL: B7 VL
notes: Human IgG1 and human kappa constant regions; NS0 cells; also called DIVHv.3/V v.3; DIVH3/VK3
B9: deimmunized B4 antibody DIVHv.2/VKv.3 produced by NS0 cells (antibody, human IgG1, V domains shown)
VH: B2 VH with K38R
VL: B7 VL
notes: Human IgG1 and human kappa constant regions; NS0 cells; also called DIVHv.2/V v.3; DIVH2/VK3
B10: deimmunized B4 antibody DIVHv.4/VKv.3 produced by NS0 cells (antibody, human IgG1, V domains shown)
VH: B2 VH with K38R, A62S
VL: B7 VL
notes: Human IgG1 and human kappa constant regions; NS0 cells; also called DIVHv.4/V v.3
B11: deimmunized B4 antibody DIVHv.2/VKv.1 produced by NS0 cells (antibody, human IgG1, V domains shown)
VH: B2 VH with K38R
VL: B1 VL with S22T, E85N, A104Q, L110I
notes: Human IgG1 and human kappa constant regions; NS0 cells; also called DIVHv.2/V v.1; DIVH2/VK1
B12: deimmunized B4 antibody DIVHv.4/VKv.1 produced by NS0 cells (antibody, human IgG1, V domains shown)
VH: B2 VH with K38R, A62S
VL: B1 VL with S22T, E85N, A104Q, L110I
notes: Human IgG1 and human kappa constant regions; NS0 cells; also called DIVHv.4/V v.1
B13: deimmunized B4 antibody DIVHv.3/VKv.1 produced by NS0 cells (antibody, human IgG1, V domains shown)
VH: B2 VH
VL: B1 VL with S22T, E85N, A104Q, L110I
notes: Human IgG1 and human kappa constant regions; NS0 cells; also called DIVHv.3/V v.1; DIVH3/VK1
B14: deimmunized B4 antibody DIVHv.1/VKv.1 produced by NS0 cells (antibody, human IgG1, V domains shown)
VH: B2 VH with A9P, V11L, I70M, T76S, R84S, R87T
VL: B1 VL with S22T, E85N, A104Q, L110I

The binders below were run against T1, recombinant soluble CD4 (rsCD4) (UniProt P01730 26-396, limits assumed) (assay: ELISA, rsCD4 coated at 0.25 µg/ml).
T1 construct: Bought reagent coated on ELISA plates at 0.25 µg/ml; also called solid-phase rsCD4
From the text: Tween® 20 in PBS. Various dilutions of the chimeric antibody and the mouse antibody as the positive control were applied. Detection was with peroxidase conjugated goat anti-human IgG and sheep anti-mouse for chimeric and mouse antibodies respectively. Color was developed with OPD.
Both the chimeric and mouse antibodies provided increases in A₄₉₂ at all concentrations of antibodies when added to the solid-phase rsCD4. This assay confirmed that the cloned and sequenced heavy and light chain variable regions retained the correct recognition site.

Binder	fold reduction in A492 compared to the original mouse antibody
B1	10 fold

These binders were tested against T2, CD4 on the surface of host T cells (HIV receptor complex involving CD4) (UniProt P01730 26-458, limits assumed) (assay: cell-based or functional assay).

Binder	Antibody Conc (µg/ml) at 50% Inhibition; MT-2 microplaque neutralization, HIV-1 TH036 (PBL), clade E	Antibody Conc (µg/ml) at 50% Inhibition; MT-2 microplaque neutralization, HIV-1 UG029 (PBL), clade A	Antibody Conc (µg/ml) at 50% Inhibition; MT-2 microplaque neutralization, HIV-1 VL135 (PBL), clade B
B2	0.7 µg/mL	0.92 µg/mL	0.35 µg/mL
B3	0.24 µg/mL	0.28 µg/mL	0.17 µg/mL
B4	0.63 µg/mL	0.73 µg/mL	0.23 µg/mL
B5	0.32 µg/mL	0.48 µg/mL	0.3 µg/mL
B6	0.51 µg/mL	0.73 µg/mL	0.24 µg/mL
B7	0.77 µg/mL	1 µg/mL	0.39 µg/mL
B8	0.44 µg/mL	1.1 µg/mL	0.62 µg/mL
B9	0.62 µg/mL	1.2 µg/mL	0.67 µg/mL
B10	0.63 µg/mL	1.1 µg/mL	0.48 µg/mL

Molecular target: T2, CD4 on the surface of host T cells (HIV …)
Test: cell-based or functional assay
Remark: another data set of the same source

Binder	Antibody Conc (µg/ml) at 50% Inhibition; MT-2 microplaque neutralization, HIV-1 MN (H9 cells), clade B	Antibody Conc (µg/ml) at 50% Inhibition; MT-2 microplaque neutralization, HIV-1 TH036 (PBL), clade E	Antibody Conc (µg/ml) at 50% Inhibition; MT-2 microplaque neutralization, HIV-1 UG029 (PBL), clade A	Antibody Conc (µg/ml) at 50% Inhibition; MT-2 microplaque neutralization, HIV-1 UG046 (PBL), clade D	Antibody Conc (µg/ml) at 50% Inhibition; MT-2 microplaque neutralization, HIV-1 UG266 (PBL), clade D	Antibody Conc (µg/ml) at 50% Inhibition; MT-2 microplaque neutralization, HIV-1 VL135 (PBL), clade B	Antibody Conc (µg/ml) at 50% Inhibition; MT-2 microplaque neutralization, HIV-1 ZIM748 (PBL), clade C
B3	14 µg/mL	0.25 µg/mL	0.44 µg/mL	0.4 µg/mL	0.4 µg/mL	0.16 µg/mL	0.21 µg/mL
B11	> 100 µg/mL	0.5 µg/mL	0.79 µg/mL	0.98 µg/mL	1.2 µg/mL	0.53 µg/mL	0.63 µg/mL
B12	> 100 µg/mL	0.35 µg/mL	0.35 µg/mL	1.1 µg/mL	7 µg/mL	0.26 µg/mL	0.28 µg/mL
B13	> 100 µg/mL	0.58 µg/mL	0.63 µg/mL	0.99 µg/mL	2.2 µg/mL	0.26 µg/mL	0.42 µg/mL
B14	> 100 µg/mL	0.31 µg/mL	0.47 µg/mL	2.1 µg/mL	0.82 µg/mL	0.21 µg/mL	0.45 µg/mL

These binders were tested against T1, recombinant soluble CD4 (rsCD4) (assay: ELISA on rsCD4).

Binder	fold reduction in binding compared to the chimeric antibody
B2	< 3 fold
B4	< 3 fold
B11	< 3 fold
B12	< 3 fold
B13	< 3 fold
B5	< 3 fold
B8	5 fold
B9	5 fold
B10	5 fold
